Measurements: PMC8199036, “Improved Tumor-Targeting with Peptidomimetic Analogs of Minigastrin ^177Lu-PP-F11N” (Cancers, 2021)
Like-named read-outs stand apart in the source and are kept apart here. Residues, ends and D or L forms follow the SMILES beside them.

Assays:
[1] = biodistribution in mice with CCK2R-positive xenografts; type: in vivo, female CD1-nu mice; details: female, CD1-nu, mouse, total radioactivity; for tissue uptake at 4 h / tissue uptake at 24 h / tissue uptake at 1 h: in vivo
Procedure: (§1) Procedures for biodistribution studies with ^177Lu-labeled conjugates (10 pmol, 100 µL, 0.1 µM in PBS, 0.5 MBq, 1 µg/kg) in female CD1-nu mice with xenografts of A431-CCK2R cells at 1, 4, and 24 h p.i., as well as blocking experiments at 4 h p.i. with a 6000-fold excess of minigastrin have been reported previously and were followed without modifications. Statistical analysis was performed via GraphPad Prism using two-sided analysis of variance. n = 4 animals per group.

[2] = test system: xenografts of A431-CCK2R cells; experiment: as above; type: in vivo, female CD1-nu mice
Procedure: as §1

[3] = 10 pmol, Stomach (CCK2R-positive) uptake
[4] = 10 pmol, Tumor (CCK2R-positive) uptake
[5] = tumor / blood, 10 pmol, read-out: Tumor-to-Blood ratio
[6] = tumor / kidneys, 10 pmol, read-out: Tumor-to-Kidneys ratio
[7] = tumor / muscle, 10 pmol, read-out: Tumor-to-Muscle ratio
[8] = tumor / stomach, 10 pmol, read-out: Tumor-to-Stomach ratio
[9] = female, CD1-nu, mouse, in vivo, 10 pmol, 4 h

Structure (SMILES): CCCC[C@H](NC(=O)[C@H](Cc1c[nH]c2ccccc12)NC(=O)Cn1cc([C@H](Cc2ccc(O)cc2)NC(=O)[C@H](C)NC(=O)[C@@H](CCC(=O)O)NC(=O)[C@@H](CCC(=O)O)NC(=O)[C@@H](CCC(=O)O)NC(=O)[C@@H](CCC(=O)O)NC(=O)[C@@H](CCC(=O)O)NC(=O)[C@@H](CCC(=O)O)NC(=O)CN2CCN(CC(=O)O)CCN(CC(=O)O)CCN(CC(=O)O)CC2)nn1)C(=O)N[C@@H](CC(=O)O)C(=O)N[C@@H](Cc1ccccc1)C(N)=O [NMG 2, DOTA-(DGlu)6-Ala-Tyr-Ψ[Tz]-Gly-Trp-Nle-Asp-Phe-NH2] (HELM PEPTIDE1{[O=C(O)CN1CCN(CC(=O)O)CCN(CC(=O)[*:2])CCN(CC(=O)O)CC1].[dE].[dE].[dE].[dE].[dE].[dE].A.[O=C(Cn1cc([C@H](Cc2ccc(O)cc2)N[*:1])nn1)[*:2]].W.[Nle].D.F.[am]}$$$$V2.0)
- tissue uptake at 4 h ([1]; 10 pmol, Blood uptake): 0.01 %ID/g
- tissue uptake at 24 h ([1]; 10 pmol, Blood uptake): < 0.01 %ID/g
- tissue uptake at 1 h ([1]; 10 pmol, Bone uptake): 0.29 %ID/g
- tissue uptake at 4 h ([1]; 10 pmol, Bone uptake): 0.1 %ID/g
- tissue uptake at 24 h ([1]; 10 pmol, Bone uptake): 0.07 %ID/g
- tissue uptake at 1 h ([1]; 10 pmol, Heart uptake): 0.07 %ID/g
- tissue uptake at 4 h ([1]; 10 pmol, Heart uptake): 0.02 %ID/g
- tissue uptake at 24 h ([1]; 10 pmol, Heart uptake): 0.01 %ID/g
- tissue uptake at 1 h ([1]; 10 pmol, Intestines uptake): 0.15 %ID/g
- tissue uptake at 4 h ([1]; 10 pmol, Intestines uptake): 0.07 %ID/g
- tissue uptake at 24 h ([1]; 10 pmol, Intestines uptake): 0.06 %ID/g
- tissue uptake at 1 h ([1]; 10 pmol, Kidneys uptake): 2.19 %ID/g
- tissue uptake at 4 h ([1]; 10 pmol, Kidneys uptake): 2.07 %ID/g
- tissue uptake at 24 h ([1]; 10 pmol, Kidneys uptake): 1.33 %ID/g
- tissue uptake at 1 h ([1]; 10 pmol, Liver uptake): 0.11 %ID/g
- tissue uptake at 4 h ([1]; 10 pmol, Liver uptake): 0.05 %ID/g
- tissue uptake at 24 h ([1]; 10 pmol, Liver uptake): 0.03 %ID/g
- tissue uptake at 1 h ([1]; 10 pmol, Lung uptake): 0.18 %ID/g
- tissue uptake at 4 h ([1]; 10 pmol, Lung uptake): 0.04 %ID/g
- tissue uptake at 24 h ([1]; 10 pmol, Lung uptake): 0.02 %ID/g
- tissue uptake at 1 h ([1]; 10 pmol, Muscle uptake): 0.05 %ID/g
- tissue uptake at 4 h ([1]; 10 pmol, Muscle uptake): 0.01 %ID/g
- tissue uptake at 24 h ([1]; 10 pmol, Muscle uptake): 0.01 %ID/g
- tissue uptake at 1 h ([1]; 10 pmol, Pancreas uptake): 0.33 %ID/g
- tissue uptake at 4 h ([1]; 10 pmol, Pancreas uptake): 0.28 %ID/g
- tissue uptake at 24 h ([1]; 10 pmol, Pancreas uptake): 0.17 %ID/g
- tissue uptake at 1 h ([1]; 10 pmol, Spleen uptake): 0.06 %ID/g
- tissue uptake at 4 h ([1]; 10 pmol, Spleen uptake): 0.03 %ID/g
- tissue uptake at 24 h ([1]; 10 pmol, Spleen uptake): 0.02 %ID/g
- tissue uptake at 1 h [1, 3]: 2.85 %ID/g
- tissue uptake at 4 h [1, 3]: 2.66 %ID/g
- tissue uptake at 24 h [1, 3]: 1.63 %ID/g
- tissue uptake at 1 h [1, 4]: 5.94 %ID/g
- tissue uptake at 4 h [1, 4]: 7.15 %ID/g
- tissue uptake at 24 h [1, 4]: 4.73 %ID/g
- tissue uptake at 4 h ([1]; Blood uptake): 0.01 %ID/g
- tissue uptake at 4 h ([1]; Heart uptake): 0.02 %ID/g
- tissue uptake at 4 h ([1]; Intestines uptake): 0.1 %ID/g
- tissue uptake at 4 h ([1]; Kidneys uptake): 2.24 %ID/g
- tissue uptake at 4 h ([1]; Liver uptake): 0.06 %ID/g
- tissue uptake at 4 h ([1]; Lung uptake): 0.04 %ID/g
- tissue uptake at 4 h ([1]; Pancreas uptake): 0.06 %ID/g
- tissue uptake at 4 h ([1]; Spleen uptake): 0.03 %ID/g
- tissue uptake at 4 h ([1]; Stomach (CCK2R-positive) uptake): 0.46 %ID/g
- tissue uptake at 4 h ([1]; Tumor (CCK2R-positive) uptake): 2.54 %ID/g
- tissue to tissue ratio at 1 h [1, 5]: 31.1 ± 10.3
- tissue to tissue ratio at 4 h [1, 5]: 715 ± 133
- tissue to tissue ratio at 24 h [1, 5]: 4260 ± 1690
- tissue to tissue ratio at 1 h [1, 6]: 2.76 ± 0.79
- tissue to tissue ratio at 4 h [1, 6]: 3.5 ± 0.54
- tissue to tissue ratio at 24 h [1, 6]: 3.78 ± 1.48
- tissue to tissue ratio at 1 h [1, 7]: 124 ± 42.1
- tissue to tissue ratio at 4 h [1, 7]: 715 ± 133
- tissue to tissue ratio at 24 h [1, 7]: 441 ± 73.7
- tissue to tissue ratio at 1 h [1, 8]: 2.68 ± 1.57
- tissue to tissue ratio at 4 h [1, 8]: 3.08 ± 1.1
- tissue to tissue ratio at 24 h [1, 8]: 3.13 ± 1.28
- Tumor washout: tumor uptake relative to 1h ([2]; 4 h): 120%
- Tumor washout: tumor uptake relative to 1h ([2]; 24 h): 80%
- Bone uptake [2, 9]: 0.09 % i.A./g
- Muscle uptake [2, 9]: 0.02 % i.A./g
